# Measured values reported in the nanobody polyreactivity screen of Harvey et al. (2022).
# Assay: yeast display, Sf9 membrane polyspecificity reagent, FACS + sequencing; frameworks hold sequencing errors
# Outline: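 In a synthetic yeast display library (Saccharomyces cerevisiae BJ5465), nanobody expression was induced with galactose for 36–48 hours. FACS gates were set low and high (top ~1%) using anti-HA fluorescence for expression and streptavidin fluorescence for binding of the Sf9 membrane reagent. Each polyreactivity label is drawn from the gate of origin.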
row,Sequence,polyreactivity (PSR sort gate)
1,QVQLVESGGGLVQAGGSLRLSCAASGRTFTNYAMGWYRQAPGKERELVASISNAGSTNYADSVKGRFTISRDNAKNTVYLQMNSLNPEDTAVYYCAADFFAGTQRTFDYWGQGTQVTVSS,high polyreactivity
2,QVQLVESGGGLVQAGGSLRLSCAASGRTFTPNAMGWYRQAPGKDRELVAAITSTGGRTYYADSVKGRFTISRDNAKNTVYLQMNSLKPDDTAVYYCAVSYRYLRKYGYWGQGTQVTVSS,high polyreactivity
3,QVQLVESGGGLVQAGGSLRLSCAASGRTFTQYAMGWYRQAPGKERELVAAIDYRGSRTYYADSVKGRFTISRDNAKNTVYLQMNSLKPEDTAFYYCNTVHRFGTYDYWGQGTQVTVSS,high polyreactivity
4,QVQLVESGGGLVQAGGSLRLSCAASGRTFTRNAMGWYRQAPGKERELVASITNGVSTNYADSVKGRFTISRDNAKNTVYLQMNSLKPEDTAVYYCNKGPLISYAYRYYQPYDYWGQGTQVTVSS,low polyreactivity
5,QVQLVESGGGLVQAGGSLRLSCAASGRTFTRYAMGWYRQAPGKERELVAAISWSGGSTYYADSVKGRFTISRDNAKNSVYLQMNSLKPEDTAVYYCNAYYYYPEFNYWGLGTQVTVSS,high polyreactivity
6,QVQLVESGGGLVQAGGSLRLSCAASGRTFTRYAMGWYRQAPGKERELVASISNGGNTYYADSVKGRFTISRDYAKNTVYLQMNSLKPEDTAVYYCAAKWKNSRPDWRGYWGQGTQVTVSS,high polyreactivity
7,QVQLVESGGGLVQAGGSLRLSCAASGRTFTRYAMGWYRQAPGKERELVASITTGGRTYYADSVKGRFTISRDNAKNTVYLQMNSLKPEDTAVYYCAARTYGGFEYWGQGTQVTVSS,high polyreactivity
8,QVQLVESGGGLVQAGGSLRLSCAASGRTFTRYAMGWYRQAPGKERELVATINSSGDRTYYADSVKGRFTISRDNAKNTVYLQMNSLKPEDTAVYYCAKRWSPYLYGYWGQGTQVTVSS,high polyreactivity
9,QVQLVESGGGLVQAGGSLRLSCAASGRTFTRYAMGWYRQAPGPERELVAASRWSGTRTYYAVSVKGRITISRDNAKNTVDLQMNSLTPEDTAVYYCAARDRVYPDYGYWGQGTQVTVSS,high polyreactivity
10,QVQLVESGGGLVQAGGSLRLSCAASGRTFTRYTMGWYRQAPGKERELVAAISYSGGSTYYADSVKGRFTISRDNAKNTVYLQMNSLKPEDTAVYYCAAASVRWPGYDYWGQGTQVTVSS,high polyreactivity
11,QVQLVESGGGLVQAGGSLRLSCAASGRTFTRYTMGWYRQAPGKERELVAAITRGGSTYADSVKGRFTISRDNAKNTVYLQMNSMKPEDTAVYYCAAYWGFYPWRAYPYDYWGQGTQVTVSS,high polyreactivity
12,QVQLVESGGGLVQAGGSLRLSCAASGRTFTRYTSGSYRPAPGKERELVAAIRYSGGSTYYADSVKGRFTISGDNAKNTVYLQMNSLKPEDTAVYYCAARSYYYGFLYRYDYWGQGTQVTVSS,low polyreactivity
13,QVQLVESGGGLVQAGGSLRLSCAASGRTFTSNAMGWYRQAPGKERELVAAISNRGTRTYYADSVKGRFTISRDNAKNTVYLQMNSLKPEDTAVYYCAASERDQRFKHYYWGQGTQVTVSS,high polyreactivity
14,QVQLVESGGGLVQAGGSLRLSCAASGRTFTSYAIGWYRQAPGKERELVAAISGSGSRTKYADSVKGRFTISRDNAKNTVYLQMNSLKPEDTAVYYCNADYRHRHDYWGQGTQVTVSS,high polyreactivity
15,QVQLVESGGGLVQAGGSLRLSCAASGRTFTSYAMGWYRQAPGKERELVAAISGNGVTTYYADSVKGRFTISRDNAKNTLYLQINSLKPEDTAVYYCAAGQRRFGYYYWGQGTQVTVSS,high polyreactivity
16,QVQLVESGGGLVQAGGSLRLSCAASGRTFTSYAMGWYRQAPGKERELVAAISGSGSRTYYADSVKGRFTISRDNAKNTVYLQMNSLKPEDTAVYYCAVSYTTYYHRYYYWGQGTQVTVSS,high polyreactivity

row,Sequence,polyreactivity (PSR sort gate)
1,QVQLVESGGGLVQAGGSLRLSCAASGRTFTVYAMGWYRQAPGKEREFVAAITERGGSTYYADSVKGRFTISRDNAKNTVYLQMNSLKPEDTAVYYCAAVYYWRPGWYVRFDYWGHGTQVTVSS,low polyreactivity
2,QVQLVESGGGLVQAGGSLRLSCAASGRTFTVYGMGWYRQAPGKEREFVATISRRGGRTYYADSVKGRFTISRDNAKNTVYLHMNSLKPEDTAVYYCNADIGTYVRSGGGDFWGQGTQVTVSS,low polyreactivity
3,QVQLVESGGGLVQAGGSLRLSCAASGRTFTWYAMGWYRQAPGKERELVAAISKSGGSTYYADSVKGRFTISRDNAKNTVYLQMNSLKPEDTAVYYCNADFYGYFLGYGYWGQGTQVTVSS,low polyreactivity
4,QVQLVESGGGLVQAGGSLRLSCAASGRTFTYNAMGWYRQAPGKERELVAAISRSGGRTYYADSVKGRFTISRDNAKNTVYLQMNSLKPEDTAVYYCNTDGYYTTAKYGYWGQGTQVTVSS,high polyreactivity
5,QVQLVESGGGLVQAGGSLRLSCAASGRTFTYNAMGWYRQAPGKERELVATINTSGASTSYADSVKGRFTISRDNAKNTVYLQMNCLKPEDTAVYYCNRDRRYYHRFDYWGQGTQVTVSS,low polyreactivity
6,QVQLVESGGGLVQAGGSLRLSCAASGRTFTYNVMGWYRQAPGKERELVAAITSGGTNYADSVKGRFTISRDNAKNTVYLQMNSLKPEDTAVYYCATDYYDDVTIGYDYWGQGTQVTVSS,low polyreactivity
7,QVQLVESGGGLVQAGGSLRLSCAASGRTFTYYAMGWYRQAPGKERELVAAIRYTGGSTHYADSVKGRFTISRDNAKNTVYLQMNSLKPEDKAVYYCAARRAYTRGGTVYFGYYYWGQGTQVTVSS,high polyreactivity
8,QVQLVESGGGLVQAGGSLRLSCAASGRTFTYYAMGWYRQAPGKERELVAAISNGGRTYYADSVKGRFTISRDNAKNTVYLQMNSLKPEDTAVYYSAAYLSPKGRGFGSWGQGTQVTVSS,high polyreactivity
9,QVQLVESGGGLVQAGGSLRLSCAASGRTFTYYAMGWYRQATGKERELVAAISRGGGSTHYADSVKGRFTISRDNAKNTVYFQMNSLKPEDTAVYYCAARYSTRYKYDYWGQGTQVTVSS,high polyreactivity
10,QVQLVESGGGLVQAGGSLRLSCAASGRTFTYYAMGWYRQGPGKESELVAAITSGGRTYYADSVKGRFTISRDNAKNTVYLELNSLKPDDTAVYYCADRRIRDYYRSYDYWGQGTQGTVSS,high polyreactivity
11,QVQLVESGGGLVQAGGSLRLSCAASGRTFTYYGKGWYRQAPGKERELVAAITERGDSTYYADSVKGRFTISRDNAKNTVYLQMNSLKPEDTAVYYCAAAEHLTRPTSPTQDGDHWGQGTQVTVSS,low polyreactivity
12,QVQLVESGGGLVQAGGSLRLSCAASGRTFTYYSMGWYRQAPGKESELVARISIRGTNTYYADSLKGRFTISRDNAKNTVYLQMTSLKPEDTAVYYCAKYYYTSIVGYDSWGQGTQVTVSS,low polyreactivity
13,QVQLVESGGGLVQAGGSLRLSCAASGRTFVDYDMGWYRQAPGKERELVADINSGGSAYYADSVKGRFTISRDNAKNTVYLQMNSLKPEDTAVYYCAASYYGDNKYDYWGQGTQVTVSS,high polyreactivity
14,QVQLVESGGGLVQAGGSLRLSCAASGRTFVFNAMGWYSPAPGKERDLVAGISGSGGSTYYADSVKGRFTISRDNAKNTVYLQMNSLKPEDTAVYYCATKFPRKELDQDSVSGLGYWGLGTQVTVSS,low polyreactivity
15,QVQLVESGGGLVQAGGSLRLSCAASGRTFVFYGMGWYRQAPGKEREFVAAITRRGGSTYYADSVKGRFTISRDNAKNTVYLQMNSLKPEDTAVYYCAAGYSSRYRGGLDYWGQGTQVTVSS,high polyreactivity
16,QVQLVESGGGLVQAGGSLRLSCAASGRTFVIYVMGLYRQAPGKERELVARISGSDGGTYYADSVKGRFTISRDNAKNTVYLQMNSLKPEDTAVYYCATARYPVAGLMDYWGQGTQVTVSS,low polyreactivity
